Data on 4 substances can be found in patent EP4663662A1.

For assay [1], the target named is human CD3 protein (Acro, Cat. No. CDD-H52W1) (human) (UniProt P07766). Briefly: SPR (Biacore), CD3 immobilised on CM5, antibody as analyte, 1:1 fit.
Assay [2] deals with cynomolgus monkey CD3 protein (Acro, Cat. No. CDD-C52W4) (cynomolgus monkey) (UniProt Q95LI5). Described as above.
Assay [3] addresses cynomolgus monkey GPRC5D (cynomolgus monkey). Briefly: flow cytometry, cynomolgus GPRC5D-CHOK1 cells; control. A general note: Flow cytometry measures light scatter and fluorescence of single cells or particles in a stream.
Assay [4] addresses human GPRC5D (human) (UniProt Q9NZD1). Briefly: flow cytometry, human GPRC5D-CHOK1 cells; control.
For assay [5], the target named is cynomolgus monkey BCMA (cynomolgus monkey). Briefly: flow cytometry, cynomolgus BCMA-CHOK1 cells; control.
cynomolgus monkey BCMA (cynomolgus monkey), sequence (Q02223 other isoform, or with tags, fused parts or gaps): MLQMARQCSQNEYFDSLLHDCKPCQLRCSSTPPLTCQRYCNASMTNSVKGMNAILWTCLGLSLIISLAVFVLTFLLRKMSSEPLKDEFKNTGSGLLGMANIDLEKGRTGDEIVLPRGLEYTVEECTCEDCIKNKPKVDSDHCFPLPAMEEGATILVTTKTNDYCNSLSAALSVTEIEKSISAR
The target in assay [6] is human GPRC5D (human) (UniProt Q9NZD1). Description: flow cytometry, NCI-H929 cells; control.
human GPRC5D (human), sequence (Q9NZD1 whole entry): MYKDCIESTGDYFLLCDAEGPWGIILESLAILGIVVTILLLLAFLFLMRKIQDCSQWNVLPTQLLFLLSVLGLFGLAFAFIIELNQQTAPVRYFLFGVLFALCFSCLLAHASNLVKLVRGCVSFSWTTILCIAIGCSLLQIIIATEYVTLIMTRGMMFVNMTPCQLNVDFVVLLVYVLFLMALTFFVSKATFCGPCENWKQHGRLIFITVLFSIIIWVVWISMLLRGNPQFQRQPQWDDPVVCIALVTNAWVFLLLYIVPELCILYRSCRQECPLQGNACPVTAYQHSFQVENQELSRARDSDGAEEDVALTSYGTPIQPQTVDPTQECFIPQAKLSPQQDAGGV
Assay [7] addresses cynomolgus monkey BCMA (cynomolgus monkey). Briefly: flow cytometry, cynomolgus BCMA-CHOK1 cells; control. The source holds these as a separate data set.
The target of assay [8] is cynomolgus monkey GPRC5D (cynomolgus monkey). Briefly: flow cytometry, cynomolgus GPRC5D-CHOK1 cells; control. This is another data set of the same source.
cynomolgus monkey GPRC5D (cynomolgus monkey), sequence (Q9NZD1 other isoform, or with tags, fused parts or gaps): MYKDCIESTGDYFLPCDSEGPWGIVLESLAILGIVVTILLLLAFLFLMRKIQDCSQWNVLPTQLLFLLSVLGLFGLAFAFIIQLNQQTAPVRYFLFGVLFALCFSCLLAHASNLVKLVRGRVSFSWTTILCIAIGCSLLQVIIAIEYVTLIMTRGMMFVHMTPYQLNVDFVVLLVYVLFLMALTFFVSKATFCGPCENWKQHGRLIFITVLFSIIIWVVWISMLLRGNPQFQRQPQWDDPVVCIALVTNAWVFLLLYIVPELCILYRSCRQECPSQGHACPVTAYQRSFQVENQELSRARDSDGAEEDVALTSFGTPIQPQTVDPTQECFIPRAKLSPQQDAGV
For assay [9], the target named is human BCMA (human) (UniProt Q02223). Briefly: flow cytometry, human BCMA-CHOK1 cells; control.
human BCMA (human), sequence (Q02223 whole entry): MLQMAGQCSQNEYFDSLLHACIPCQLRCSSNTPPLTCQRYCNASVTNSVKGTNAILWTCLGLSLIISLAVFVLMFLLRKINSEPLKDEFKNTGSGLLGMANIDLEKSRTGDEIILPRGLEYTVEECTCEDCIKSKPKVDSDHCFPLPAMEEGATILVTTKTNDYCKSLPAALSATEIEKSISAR
Assay [10] has the same target. Briefly: flow cytometry, human BCMA-CHOK1 cells; control. This is another data set of the same source.
Assay [11] deals with human CD3 on cells (Jurkat cells, human PBMCs) (human) (UniProt P07766). Briefly: flow cytometry, human PBMCs; negative control.
human CD3 on cells (Jurkat cells, human PBMCs) (human), sequence (P07766 23-207): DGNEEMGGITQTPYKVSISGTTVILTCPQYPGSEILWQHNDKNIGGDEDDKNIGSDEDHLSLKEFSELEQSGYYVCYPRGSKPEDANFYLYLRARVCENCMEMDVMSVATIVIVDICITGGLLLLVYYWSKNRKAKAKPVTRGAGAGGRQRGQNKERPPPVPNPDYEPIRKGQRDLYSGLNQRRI
For assay [12] the target is unchanged. Briefly: flow cytometry, Jurkat cells; negative control.
Assay [13] addresses dual targets human BCMA and human GPRC5D on tumor cells (NCI-H929, RPMI8226) (human). Briefly: flow cytometry, NCI-H929 cells (express BCMA and GPRC5D); negative control.
For assay [14] the target is unchanged. Briefly: flow cytometry, RPMI8226 cells (express BCMA and GPRC5D); negative control.
In assay [15] the target is cynomolgus monkey CD3 on cyno PBMCs (cynomolgus monkey) (UniProt Q95LI5). Description: flow cytometry, cyno PBMCs; negative control.
cynomolgus monkey CD3 on cyno PBMCs (cynomolgus monkey), sequence (Q95LI5 22-198): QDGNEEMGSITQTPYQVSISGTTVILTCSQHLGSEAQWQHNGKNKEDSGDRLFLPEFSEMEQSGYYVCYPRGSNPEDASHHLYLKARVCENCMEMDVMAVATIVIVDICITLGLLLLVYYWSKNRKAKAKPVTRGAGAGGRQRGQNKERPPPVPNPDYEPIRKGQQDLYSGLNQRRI
For assay [16], the target named is human BCMA (human) (UniProt Q02223). Description: flow cytometry, human BCMA-CHOK1 cells; negative control.
Assay [17] concerns the target human GPRC5D (human) (UniProt Q9NZD1). Description: flow cytometry, human GPRC5D-CHOK1 cells; negative control.
In assay [18] the target is cynomolgus monkey BCMA protein (Acro, Cat. No. BCA-C52H7) (cynomolgus monkey). Description: SPR (Biacore), antibody captured by anti-human IgG Fc, BCMA as analyte, 1:1 fit. In general terms: Surface plasmon resonance follows binding to a sensor surface in real time, without labels.
For assay [19], the target named is human BCMA protein (Acro, Cat. No. BCA-H522y) (human) (UniProt Q02223). The assay is described as above.
human BCMA protein (Acro, Cat. No. BCA-H522y) (human), sequence (Q02223 1-54 limits assumed): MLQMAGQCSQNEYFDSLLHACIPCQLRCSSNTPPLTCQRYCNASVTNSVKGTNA
Assay [20] has as its target cynomolgus monkey BCMA (cynomolgus monkey). Briefly: flow cytometry, cynomolgus BCMA-CHOK1 cells.
The target in assay [21] is human BCMA (human) (UniProt Q02223). Briefly: flow cytometry, NCI-H929 cells (express BCMA and GPRC5D).
Assay [22] has as its target human CD3 on cells (Jurkat cells, human PBMCs) (human) (UniProt P07766). Briefly: flow cytometry, human PBMCs.
For assay [23], the target named is human BCMA (human) (UniProt Q02223). Description: flow cytometry, human BCMA-CHOK1 cells.
For a further assay, the target named is soluble BCMA (UniProt Q02223). Briefly: cell-based or functional assay.
soluble BCMA, sequence (Q02223 1-54 limits assumed): as above
Assay [24] deals with cynomolgus monkey CD3 on cyno PBMCs (cynomolgus monkey) (UniProt Q95LI5). Description: flow cytometry, cyno PBMCs.
Assay [25] has as its target human GPRC5D (human) (UniProt Q9NZD1). Briefly: flow cytometry, human GPRC5D-CHOK1 cells.
Assay [26] deals with human CD3 on cells (Jurkat cells, human PBMCs) (human) (UniProt P07766). Briefly: flow cytometry, Jurkat cells.
Assay [27] has as its target human BCMA (human) (UniProt Q02223). Briefly: flow cytometry, RPMI8226 cells (express BCMA and GPRC5D).

Read-outs that look alike come from different tables or passages of the source.

human CD3 protein (Acro, Cat. No. CDD-H52W1) (human), sequence (P07766 23-126): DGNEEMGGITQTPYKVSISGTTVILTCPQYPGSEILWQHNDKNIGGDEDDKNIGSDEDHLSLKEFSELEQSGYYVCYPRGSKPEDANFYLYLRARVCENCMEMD
cynomolgus monkey CD3 protein (Acro, Cat. No. CDD-C52W4) (cynomolgus monkey), sequence (Q95LI5 22-117): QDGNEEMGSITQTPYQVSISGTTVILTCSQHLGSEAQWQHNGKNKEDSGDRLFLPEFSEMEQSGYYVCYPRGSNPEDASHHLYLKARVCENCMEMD
dual targets human BCMA and human GPRC5D on tumor cells (NCI-H929, RPMI8226) (human), sequence (chain, as listed by the source, chain 1 of 2): as the sequence (Q02223 whole entry) above
dual targets human BCMA and human GPRC5D on tumor cells (NCI-H929, RPMI8226) (human), sequence (chain, as listed by the source, chain 2 of 2): as the sequence (Q9NZD1 whole entry) above

For “Talquetamab analogue (GPRC5D/CD3) (bispecific antibody)”, in assay [1], the Kd (in general, the constant that tells how readily two partners part at equilibrium) is 18 nM; the koff (in general, the rate constant with which the complex falls apart) was found to be 0.00201 s⁻¹; the kon (usually the rate constant with which the complex forms) was found to be 112000 M⁻¹ s⁻¹. Besides, in assay [2], the Kd worked out at 22.2 nM, the koff was found to be 0.00379 s⁻¹ and the on-rate (kon) came to 170000 M⁻¹ s⁻¹.
IgG1 AA (antibody): the Top MFI in assay [3] worked out at 85 MFI; with human GPRC5D (human) [4], 36 MFI; in assay [5], 382 MFI; with human GPRC5D (human) [6], 178 MFI; in assay [7], 82.6 MFI; in assay [8] it was 1840 MFI. Besides, the Top MFI stood at 232 MFI in the assay with human BCMA (human) [9] and 89.1 MFI with human BCMA (human) [10].
With “hIgG1 LALA isotype (Biointron, Cat. No. B109802) (antibody)”, the Top MFI in [11] turned out to be 96.1 MFI; in assay [12], 77.6 MFI; in assay [13], 104 MFI; in [14], 112 MFI; in assay [15], 93.3 MFI; with human BCMA (human) [16] it was 119 MFI. In the assay with human GPRC5D (human) [17], this substance gave a Top MFI of 100 MFI.
As for “Teclistamab analogue (BCMA/CD3) (bispecific antibody)”, the Kd in assay [18] was found to be 8.49 nM; in assay [19], 0.379 nM; in [1] it was 21 nM; in [2], 21.1 nM. The koff in assay [18] came to 0.0235 s⁻¹; in [19], 0.00135 s⁻¹; in assay [1], 0.00522 s⁻¹; in assay [2], 0.00336 s⁻¹. Moreover, the kon in assay [18] worked out at 2.77e+06 M⁻¹ s⁻¹; in assay [19], 3.55e+06 M⁻¹ s⁻¹; in assay [1] it was 248000 M⁻¹ s⁻¹; in assay [2], 159000 M⁻¹ s⁻¹. Also, the EC50 (in general, the concentration at which the effect is half-maximal) turned out to be 15.3 nM in assay [20]; 2.43 nM with human BCMA (human) [21]; 6.06 nM in assay [22]; 2.63 nM in the assay with human BCMA (human) [23]; 55.8 nM in assay [24]; 3.22 nM in [26]. In addition, the EC50 with human BCMA (human) [27] is 1.17 nM. Besides, the Top MFI in [20] was 1770 MFI; with human BCMA (human) [21], 669 MFI; in [22], 672 MFI; in the assay with human BCMA (human) [23] it was 2280 MFI; in assay [24] it was 2060 MFI; with human GPRC5D (human) [25], 160 MFI. The Top MFI is 825 MFI in assay [26] and 169 MFI with human BCMA (human) [27]. Also, in the assay with soluble BCMA, the Ratio (EC50) of TDCC on NCI-H929, 2.5 ug/ml BCMA against 0 ug/ml BCMA worked out at 21 fold. Further, the fold change of TDCC EC50 on NCI-H929 in the presence of 2500 ng/ml soluble BCMA with soluble BCMA amounted to 25 fold.
